Test results reported in publication PMC6430473.

Biological target: T1, Clp (Xanthomonas campestris pv. campestris 8004) (UniProt Q4UZF6)
T1 sequence: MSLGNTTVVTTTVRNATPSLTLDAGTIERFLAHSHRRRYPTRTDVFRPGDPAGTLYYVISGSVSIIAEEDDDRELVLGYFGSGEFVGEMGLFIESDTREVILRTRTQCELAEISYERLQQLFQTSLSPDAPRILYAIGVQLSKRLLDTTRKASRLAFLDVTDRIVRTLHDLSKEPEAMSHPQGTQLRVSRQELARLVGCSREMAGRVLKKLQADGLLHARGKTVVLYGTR
Assay: EMSA

Sequence	binding
AGCTGAAGGCCGGCCCGGCGGCCAGTGCGAGGGCGGTGGCCAAAGCGAGCGTGCTTGCGGTCCTGAATATGGACATGGTGATCTCCCTAGAGAACCGGGCTCGACACCCGAGCGCGGTAAGGCGGGCATCTTGGTCTGTGCGCGCGTCGCGTGGTG (double strand) [P-36/+120 (text: P-36/+100)]	no binding
CATGGTGATCTCCCTAGAGAACCGGGCTCGACACCCGAGCGCGGTAAGGCGGGCATCTTGGTCTGTGCGCGCGTCGCGTGGTGTGATCGTCCCCACAGAAAAC (double strand) [P-56/+47]	binds
